B1: Integrin alpha-L (Homo sapiens), P20701 (parent)
chain: MKDSCITVMAMALLSGFFFFAPASSYNLDVRGARSFSPPRAGRHFGYRVLQVGNGVIVGAPGEGNSTGSLYQCQSGTGHCLPVTLRGSNYTSKYLGMTLATDPTDGSILACDPGLSRTCDQNTYLSGLCYLFRQNLQGPMLQGRPGFQECIKGNVDLVFLFDGSMSLQPDEFQKILDFMKDVMKKLSNTSYQFAAVQFSTSYKTEFDFSDYVKRKDPDALLKHVKHMLLLTNTFGAINYVATEVFREELGARPDATKVLIIITDGEATDSGNIDAAKDIIRYIIGIGKHFQTKESQETLHKFASKPASEFVKILDTFEKLKDLFTELQKKIYVIEGTSKQDLTSFNMELSSSGISADLSRGHAVVGAVGAKDWAGGFLDLKADLQDDTFIGNEPLTPEVRAGYLGYTVTWLPSRQKTSLLASGAPRYQHMGRVLLFQEPQGGGHWSQVQTIHGTQIGSYFGGELCGVDVDQDGETELLLIGAPLFYGEQRGGRVFIYQRRQLGFEEVSELQGDPGYPLGRFGEAITALTDINGDGLVDVAVGAPLEEQGAVYIFNGRHGGLSPQPSQRIEGTQVLSGIQWFGRSIHGVKDLEGDGLADVAVGAESQMIVLSSRPVVDMVTLMSFSPAEIPVHEVECSYSTSNKMKEGVNITICFQIKSLIPQFQGRLVANLTYTLQLDGHRTRRRGLFPGGRHELRRNIAVTTSMSCTDFSFHFPVCVQDLISPINVSLNFSLWEEEGTPRDQRAQGKDIPPILRPSLHSETWEIPFEKNCGEDKKCEANLRVSFSPARSRALRLTAFASLSVELSLSNLEEDAYWVQLDLHFPPGLSFRKVEMLKPHSQIPVSCEELPEESRLLSRALSCNVSSPIFKAGHSVALQMMFNTLVNSSWGDSVELHANVTCNNEDSDLLEDNSATTIIPILYPINILIQDQEDSTLYVSFTPKGPKIHQVKHMYQVRIQPSIHDHNIPTLEAVVGVPQPPSEGPITHQWSVQMEPPVPCHYEDLERLPDAAEPCLPGALFRCPVVFRQEILVQVIGTLELVGEIEASSMFSLCSSLSISFNSSKHFHLYGSNASLAQVVMKVDVVYEKQMLYLYVLSGIGGLLLLLLIFIVLYKVGFFKRNLKEKMEAGRGVPNGIPAEDSEQLASGQEAGDPGCLKPLHEKDSESGGGKD
partner: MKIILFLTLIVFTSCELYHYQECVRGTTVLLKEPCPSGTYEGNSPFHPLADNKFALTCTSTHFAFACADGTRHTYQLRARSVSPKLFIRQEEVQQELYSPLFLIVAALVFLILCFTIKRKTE

Variants of: B1
Conditions: with ns7a_sars ns7a

Row | Variant | effect of a mutation on the interaction
1 | K288C;K293C | increasing interaction strength
